In the DeepSol protein solubility set:

Test: soluble on expression in E. coli; label from the status in PepcDB or PDB records
With “MGSDKIHHHHHHMAESKTKRLLYFMSELEKGNQINKEEYIAKFNISDRTMKEDVSELKTNLKELRPNMQIKFSRKHACYFASYEQGYGNLKYNQAVILSKILLESRALRKEEVAEIINIFVERAVDDKERTRIKKLTQFELNSYQELKFYQKSNKSILPTISAIFDAIVDQRPLAFSYTKPSSKVEEYIVLPISVIFDNHYFYCISYKLDNCFQSRYELQELRYFRVDRFKTIHKSISNSAFALTEEEQERLITDEQVRYQTFSMLSDQKWVRIQFRYTGQFRDVLEADIPKLKMINELEEGIIYEIETLSLLGFQKYIQRFDGDFVFLNIKSIKK” the “soluble on expression in E. coli” value was “not soluble”. With “MSLTRRDFAGRSALTGAGVVLAGSVGALATAPNALASTDTDSVGAEHDGHDHHHGHGHGGVGYGPLLPDPDGILALPAGFRYEIITYSGRTKLESGEYTPSNHDGTAAFDGPRGTTLLVNNHELGGHRDDWPHPVPLTEGLVYDPAAAGGCTVVEVRRGGHVAEWVGIAGTATNCAGGSTPWGTWLTCEETEDRAGEEGMTKDHGYVFEVDPEDRRANREPKPVKALGRYAHEAVVIDPKRGHAYLTEDASGPNGLLYRWTPPEHFRHGRGRLRTLADDAGVLQAFKCFDSGGKFVDDLSRATRTGTVYGVDWVDVPDRDAQTTSVRKQFAAGEVTRARKLEGMWWADGGAYVVSSFARDESPGRPHDGQVWFYDPKRRTLTLKVLLGVNADPSADGAFDGPDNITVSPYGGLVIAEDGDGVQHLFGATDSGRTYPIARNELNLGTEDDPEYSEFTGVTFSPDGRTLYANIQTPGIMLAITGPWKRQKRR” the “soluble on expression in E. coli” value was “soluble”. With “MGSDKIHHHHHHMLLLEVKNVSKSYGDTEVLKNVSFELNEGDVMGVLGRSGAGKSVLLHMLRGMEGYEPTSGQIIYHVAYCPHCENVEAPSQVGKKCECETEYVAKSVDFWNNNEITYALKKKIAIMLQRTFALYGEKTVAENIMEALTAAGYEGKDATEWALNLIKMVKLEHRVAHISRDLSGGEKQRVVLARQIAKNPVIFLADEPTGTLDPKTAKFVHNALTEAVIKHNIAMVITSHWPEVIEELCQKAIWLDKGEMRLVGESKHVVEEFMKTVTSMKEFEKVEVKDELLKLENVEKRYVSVDRGIVKAVDGIDVSINEKEIFGLVGVSGAGKTTLSKIIAAVIPPSKGNYEFRLADEWVDMTKVGPLYRGRAKRYIGMLFQEYSLYPHRTILYNLTESIGLEMPGEFAKMKAEHTLVSVGFTEEEAENMLEKHPSELSVGEKHRVALAQVLIREPHLILLDEPTGTMDPITRNQVAESIQKSRSELDQTYVIVSHDMDFVLNVCDRAALVRGGKIIKTGKPDEIVKILSEEEKDEMIGH” the “soluble on expression in E. coli” value was “not soluble”. In the case of “MQKIVIVANGAPYGSESLFNSLRLAIALREQESNLDLRLFLMSDAVTAGLRGQKPGEGYNIQQMLEILTAQNVPVKLCKTCTDGRGISTLPLIDGVEIGTLVELAQWTLSADKVLTF”, the “soluble on expression in E. coli” value was “soluble”. For “MAYDIFLKIDGIDGESMDDKHKNEIEVLSWRWNIHQESTMHAGSGLGSGKVSVTNLDFDHYIDRASPNLFKYCASGKHIPQAILVMRKAGGNPLEYLKYTFTDLIVAVVSPSGSHDGEIASRETVELSFSTVKQEYVVQNQQGGSGGTITAGYDFKANKEI”, the “soluble on expression in E. coli” value was “not soluble”. In the case of “GTKMEPMEYLVVDVPSEFQGAIIEKMGPRKGEMTSLQPMGETVRLEFVVPARGLIGLRGELLTETRGTAVMTHTFHDYAPYKGDIPGRKNGVLIAMELGETTAYALDALQPRGILFIGPGVEVYGGMI”, the “soluble on expression in E. coli” value was “not soluble”. In the case of “MIDMTSKKRAVAPRDLYRRWPWANTAGMEPDMVRLQIFVQNLERAVIGDGRMRPVTSPSEFCDNIGISHATLGRILRGEVIPRFDTIDKLERGVGRALFPPFEDVRVRGNKG”, the “soluble on expression in E. coli” value was “not soluble”. With “MMKPIAVSQLSDNFFETISKEWMLVTAGNKNAFNTMTANWGGIGFLWNKPVVYVFIRPERYTFGFMEKSDYFTLSFLGEENKSIHKICGSKSGREVDKIKETGLKPMITDKGNVLFEQGRLSLECRKLYTDVLRKENFLDPSVYEQWYTTHGGLHHVYVAEITSAWIKD” the “soluble on expression in E. coli” value was “not soluble”. For “DFKLDFKDIKGQEKAKRACMIAALGMHNILFEGSPGSGKSMCAKRLVYIMPPQSLSEILMQNAYMSLDSKDCEFTKIRAFRHPHHTSTRASIFGGGTKNARIGEVALANGGVLFFDEFPHFNKQIIESLREPLEDHKIHISRVNSKITYETKFSFIAAQNPCPCGNL”, the “soluble on expression in E. coli” value was “not soluble”. In the case of “MGSDKIHHHHHHMKDVQNEKDPRMVPLKKVGIKDLHWPLKVILKEDGYQSTVAQISCSVDLHREKRGIHMSRFIEVLNKLEVITPQIFEEILDDLIEIMEAKRAHLEIHFPYFIWKESPVSRKKSPLKVDCFVEAEKEKNFSFKIGVRTPVHTLCPCSKEISDYGAHNQRAFVEITVKTRKFIWFEDLVEIAEKNASSPLYTLLKRPDEKFVTEKAYENPRFVEDVARDVALELEKDPRITWYRVYVESMESIHNHNAFACVEKGDFVLEG”, the “soluble on expression in E. coli” value was “not soluble”. In the case of “MPTPFDVTILGGGLAGRLCAWQLAQTGVPPARIAVVERGARDGSGSAAYVAAAMLAPLAEAAVADRFVVELGLASLTLWRDWLPMLRTPVFFQQAGTLVVWHPADRGEASLFANHVRAATPPERIAADLRAVDAEGIGTLEPALAQRFSQGLYLAGEGQLDNRAVLDALATELEALGVQLRWNTAVADPHPQALAAAGLGARLVLDCRGLGAQPQWPQLRGLRGEVARIHAPDVTLTRPVRMLHPRYPIYIAPKPGHVYVIGATEIESDDMSPVSVRSTLELLSAAYAVHPAFGEARVLELCTQCRPTLPDHRPAIRWDGAGTLSVNGLYRHGYMIAPAVAQAAVAAAHALLDGRAIDAPASAWPGLFAAPASPEPVLPLEHHHHHH”, the “soluble on expression in E. coli” value was “soluble”. For “DEFQWKGLPVVKSGLDVGGMPTGTRYHRSPAWPEEQPGETHAPAPFGSGDKRYTFSQTEMLVNGLKPYTEPTAGVPPQLLSRAVTHVRSYIETIIGTHRSPVLTYHQACELLERTTSCGPFVQGLKGDYWDEEQQQYTGVLANHLEQAWDKANKGIAPRNAYKLALKDELRPIEKNKAGKRRLLWGCDAATTLIATAAFKAVATRLQVVTPMTPVAVGINMDSVQMQVMNDSLKGGVLYCLDYSKWDSTQNPAVTAASLAILERFAEPHPIVSCAIEALSSPAEGYVNDIKFVTRGGLPSGMPFTSVVNSINHMIYVAAAILQAYESHNVPYTGNVFQVETIHTYGDDCMYSVCPATASIFHTVLANLTSYGLKPTAADKSDAIKPTNTPVFLKRTFTQTPHGIRALLDITSITRQFYWLKANRTSDPSSPPAFDRQARSAQLENALAYASQHGPVMFDTVRQIAIKTAQGEGLVLVNTNYDQALATYNAWFIGGTVPDPVGHTEGTHKIVFEME”, the “soluble on expression in E. coli” value was “soluble”. For “SQIFASDGKTQLARIVPPDGNRTEVPIDKIPEVTRNAVLAAEDREFYTNSGFSFTGFGRAILGQLTGDASAGGGSTITQQYVKNMVVGNDYSYMRKAKELVYSVKMANEWSKDEVLGAYLNTIYFGRNAYGIDAAAHAYFGVPASELNVGQSAMLAATIQRPSQLDPWSNR”, the “soluble on expression in E. coli” value was “not soluble”. In the case of “MSPRRSAAEAQATRGRILGRAAEIASEEGLDGITIGRLAEELEMSKSGVHKHFGTKETLQISTLDKAFVDFWHRVVEPALAEPPGLRRLRAVCANSVGYLEEPLLPGGCLLTAALSEYDGRPGRVRDAVAEVWSRWREQLRADLTAAVDKGELPAGFDVEQALFEIVAAGLALNAAMQLQHDRTAADRARRAIERALAQS”, the “soluble on expression in E. coli” value was “soluble”. In the case of “MESCLDIFKIVIGPSSSRTVGPMRAACHFISLLREQETLPLIREIEIELYGALSLSRKCHNVDTALYLGLLGCQPENVDLRSYMAVIKRAENENKIELPLSDAGGITIKVKIIANHQAHPGHPYAMTFRARDDYFTVYEETWFSTGAGQVRKHGEPLTPSLPLRTVSPFEFSHAAQLLALCRRNGLSVAALMMKNELCRHSPQTLQNYLAQIWDVMQQAVYRGLHTEGVLPGPYQVPRRACALHKTLQANRSASDFLTALNWVNAFAIAVSEENASGGQIVTAPTNGACGIIPAALCWYDKFVTPLEPGALTRFFLTAAAIAMLFKQNASILGSEVGCQGEIGVACSMAAAGLAELMGASVEQTLSAAEIAMEHHLGLTCDPLGGQVQIPCIERNAISAVKAINAATMAMSRVSEPCISLDEIIAAMYETGKDMSAKYRETYHGSLGKIQPRKRG”, the “soluble on expression in E. coli” value was “not soluble”.
